Assay results taken from article PMC5472190.

Legend:
[1] = biological target: nuclear egress complex (NEC), heterodimer of pUL31 and pUL34 (herpes simplex virus 1, strain F) (UniProt P10215); experiment: cryo-electron tomography; tomograms of nuclear sacs from US3-null-infected Vero cells; 188 ring subtomograms, rotational symmetry by ROTASTAT, subtomogram averaging
[2] = biological target: triplex of the HSV-1 capsid (herpes simplex virus 1, strain F); experiment: cryo-EM structure; icosahedral reconstruction of isolated PEVs (123 particles), projection matching from a starting map of in vitro-matured B-capsids that lack CCSC and pUL35; ~2 nm around the capsid shell, ~3.5 nm for the whole particle

“nuclear egress complex (NEC), heterodimer of pUL31 and pUL34 (from UniProt P10215 1-306; P10218 1-275)” was tested. Which stoichiometry N [1] did it give?
The stoichiometry N was 7.

For “heterodimeric pUL17/pUL25 complex, C-capsid-specific complex (CCSC) (from UniProt P10201 1-703; P10209 1-580)”, which occupancy [2] is on record?
Its occupancy is 100%.
